These results are taken from publication PMC4872126.

What all share (experiment): fluorescence anisotropy
Details in all cases: 50 mM Tris-HCl pH 8.0, 50 mM NaCl, 1 mM DTT, 25 C; 200 nM protein, 5 nM 3'-fluorescein DNA
Background: Fluorescence polarisation rises when a labelled molecule tumbles more slowly, as on binding a larger partner.

One data set has as its target BLM642-1290 (human) (UniProt P54132).
The target in data set [1] is RecQ E. coli (Escherichia coli) (UniProt P15043).
The next data set deals with BLM full-length (human) (UniProt P54132).
BLM full-length (human), sequence (P54132 whole entry): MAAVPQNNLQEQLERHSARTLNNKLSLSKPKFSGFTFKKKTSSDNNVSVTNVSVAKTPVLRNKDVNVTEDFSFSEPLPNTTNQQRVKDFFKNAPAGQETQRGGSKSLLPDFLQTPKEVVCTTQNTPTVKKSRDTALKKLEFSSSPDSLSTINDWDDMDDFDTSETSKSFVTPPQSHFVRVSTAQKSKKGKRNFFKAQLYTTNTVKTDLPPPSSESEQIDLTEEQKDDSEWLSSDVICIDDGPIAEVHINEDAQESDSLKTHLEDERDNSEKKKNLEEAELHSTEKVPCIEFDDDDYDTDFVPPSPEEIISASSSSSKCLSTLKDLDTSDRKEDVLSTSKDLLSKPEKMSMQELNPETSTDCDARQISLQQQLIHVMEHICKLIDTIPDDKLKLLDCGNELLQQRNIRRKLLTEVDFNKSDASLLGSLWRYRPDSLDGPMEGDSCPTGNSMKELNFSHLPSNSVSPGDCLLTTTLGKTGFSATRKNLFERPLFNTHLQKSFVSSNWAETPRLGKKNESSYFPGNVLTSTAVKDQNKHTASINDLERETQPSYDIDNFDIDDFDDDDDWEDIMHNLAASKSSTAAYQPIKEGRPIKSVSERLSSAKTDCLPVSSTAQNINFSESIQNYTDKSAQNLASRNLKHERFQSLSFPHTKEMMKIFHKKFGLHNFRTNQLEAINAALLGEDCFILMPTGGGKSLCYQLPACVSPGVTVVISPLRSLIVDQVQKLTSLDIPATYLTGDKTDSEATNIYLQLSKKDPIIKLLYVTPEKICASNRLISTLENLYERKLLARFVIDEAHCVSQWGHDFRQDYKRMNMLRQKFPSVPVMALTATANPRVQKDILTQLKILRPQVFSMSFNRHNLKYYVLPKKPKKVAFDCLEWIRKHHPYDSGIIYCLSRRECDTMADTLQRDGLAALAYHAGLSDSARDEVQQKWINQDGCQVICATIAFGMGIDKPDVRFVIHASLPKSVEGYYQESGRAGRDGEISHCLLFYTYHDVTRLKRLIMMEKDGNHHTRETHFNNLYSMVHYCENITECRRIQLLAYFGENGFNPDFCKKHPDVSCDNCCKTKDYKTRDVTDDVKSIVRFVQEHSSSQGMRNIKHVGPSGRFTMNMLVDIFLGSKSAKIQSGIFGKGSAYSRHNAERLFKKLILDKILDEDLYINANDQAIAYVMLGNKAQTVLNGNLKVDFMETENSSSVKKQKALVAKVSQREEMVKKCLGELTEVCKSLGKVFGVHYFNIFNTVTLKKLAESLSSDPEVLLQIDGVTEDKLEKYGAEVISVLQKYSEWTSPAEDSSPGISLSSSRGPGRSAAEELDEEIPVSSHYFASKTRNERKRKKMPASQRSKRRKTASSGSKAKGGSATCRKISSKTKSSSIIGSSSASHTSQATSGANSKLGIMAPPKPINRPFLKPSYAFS

BLM642-1290 (human), sequence (P54132 642-1290): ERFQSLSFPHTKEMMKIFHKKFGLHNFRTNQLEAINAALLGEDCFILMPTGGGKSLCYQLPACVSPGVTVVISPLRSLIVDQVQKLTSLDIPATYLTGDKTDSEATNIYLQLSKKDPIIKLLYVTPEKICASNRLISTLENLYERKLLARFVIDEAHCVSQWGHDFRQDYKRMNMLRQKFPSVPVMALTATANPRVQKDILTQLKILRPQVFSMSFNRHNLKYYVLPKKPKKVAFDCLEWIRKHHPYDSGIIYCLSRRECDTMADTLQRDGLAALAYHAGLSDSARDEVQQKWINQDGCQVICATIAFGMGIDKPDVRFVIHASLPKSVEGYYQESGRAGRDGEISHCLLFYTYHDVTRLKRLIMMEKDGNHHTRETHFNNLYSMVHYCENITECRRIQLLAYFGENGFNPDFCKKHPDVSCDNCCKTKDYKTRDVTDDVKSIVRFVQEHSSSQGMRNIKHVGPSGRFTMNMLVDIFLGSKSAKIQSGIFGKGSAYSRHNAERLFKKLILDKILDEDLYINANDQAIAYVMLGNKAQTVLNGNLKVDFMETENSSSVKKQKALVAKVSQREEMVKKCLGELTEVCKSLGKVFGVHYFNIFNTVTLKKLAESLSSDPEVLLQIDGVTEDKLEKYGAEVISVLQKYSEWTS
RecQ E. coli (Escherichia coli), sequence (P15043 whole entry): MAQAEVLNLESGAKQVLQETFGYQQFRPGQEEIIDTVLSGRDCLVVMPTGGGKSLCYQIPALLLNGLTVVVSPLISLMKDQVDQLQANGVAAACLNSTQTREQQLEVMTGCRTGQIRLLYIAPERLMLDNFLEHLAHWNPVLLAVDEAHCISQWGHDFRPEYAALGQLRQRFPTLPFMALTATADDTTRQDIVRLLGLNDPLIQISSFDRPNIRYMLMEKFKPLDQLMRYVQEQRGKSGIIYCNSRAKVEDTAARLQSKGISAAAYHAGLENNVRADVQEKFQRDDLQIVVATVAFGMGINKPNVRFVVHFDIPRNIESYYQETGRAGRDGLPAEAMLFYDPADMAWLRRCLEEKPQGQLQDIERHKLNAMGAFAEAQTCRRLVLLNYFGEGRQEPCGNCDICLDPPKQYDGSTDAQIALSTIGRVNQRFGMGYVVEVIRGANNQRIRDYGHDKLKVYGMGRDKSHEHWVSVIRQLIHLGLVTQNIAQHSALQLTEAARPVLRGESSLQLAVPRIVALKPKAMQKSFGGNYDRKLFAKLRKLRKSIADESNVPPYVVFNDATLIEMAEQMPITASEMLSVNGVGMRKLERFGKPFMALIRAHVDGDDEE

The IC50 is the concentration that gives 50% inhibition. The low end stands for higher potency, the high end for lower potency. “GCCCTGCTGCCGACCAACGAAGGT (double strand) [F-24 ds]”: the figures for the IC50 (with BLM642-1290 (human); in data set [1]; in the data set with BLM full-length (human)) were 8.17 µM, 44.1 µM and 6.84 µM, respectively.
